Source: article PMC1277818, “Substrate specificity analysis of protein kinase complex Dbf2-Mob1 by peptide library and proteome array screening” (BMC Biochemistry, 2005)

Biological target: T1, FHHDbf2-H6Mob1TM9 (Saccharomyces cerevisiae, UniProt P22204+P40484)
T1 construct: made in house; host or cells: Hi5 insect cells (baculovirus)
T1 sequence (P22204 1-572): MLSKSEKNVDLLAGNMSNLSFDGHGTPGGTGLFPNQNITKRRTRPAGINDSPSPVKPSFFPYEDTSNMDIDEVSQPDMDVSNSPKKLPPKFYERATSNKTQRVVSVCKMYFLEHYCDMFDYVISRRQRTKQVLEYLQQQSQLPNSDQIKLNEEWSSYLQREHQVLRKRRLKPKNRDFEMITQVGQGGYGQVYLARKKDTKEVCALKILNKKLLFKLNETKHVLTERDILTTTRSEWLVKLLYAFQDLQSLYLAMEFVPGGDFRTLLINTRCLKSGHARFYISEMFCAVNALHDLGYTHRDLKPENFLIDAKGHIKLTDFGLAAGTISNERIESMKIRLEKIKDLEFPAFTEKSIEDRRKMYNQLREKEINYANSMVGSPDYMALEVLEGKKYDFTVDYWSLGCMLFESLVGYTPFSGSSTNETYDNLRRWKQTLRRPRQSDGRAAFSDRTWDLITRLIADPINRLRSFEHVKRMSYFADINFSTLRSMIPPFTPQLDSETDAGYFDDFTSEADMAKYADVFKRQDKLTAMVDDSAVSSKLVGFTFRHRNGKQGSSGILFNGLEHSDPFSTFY
T1 sequence (P40484 1-314 partner): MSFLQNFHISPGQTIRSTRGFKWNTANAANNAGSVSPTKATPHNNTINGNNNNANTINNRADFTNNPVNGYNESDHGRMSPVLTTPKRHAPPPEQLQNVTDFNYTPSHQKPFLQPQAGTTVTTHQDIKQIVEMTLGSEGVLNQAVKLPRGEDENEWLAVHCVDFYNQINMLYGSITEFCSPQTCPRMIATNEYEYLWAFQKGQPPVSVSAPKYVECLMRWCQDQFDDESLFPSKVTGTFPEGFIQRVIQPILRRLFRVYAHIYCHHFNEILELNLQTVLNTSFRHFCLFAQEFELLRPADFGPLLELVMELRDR
Assay: Yeast proteome chip assay
Format: biochemical
Settings: [γ-33P]ATP, chips in duplicate
Experimental: The relatively low sequence complexity of the Dbf2 phosphorylation motif diminished the power of using genome-wide bioinformatics screens to identify putative substrates. Accordingly, we carried out a proteome array screen to identify putative yeast substrates. […] After taking into account the proteins phosphorylated in the negative controls, 67 proteins were determined to be putative Dbf2-Mob1 substrates (Table 3).
Yeast proteome microarrays were prepared as previously described. Overexpressed GST-tagged yeast proteins were purified from ~4,400 yeast strains and spotted on slides. To determine the optimal amount of kinase to use for probing proteome chips, we performed trial assays as described (J. Ptacek et al., submitted). […] The full proteome array was probed with 4 μl ^FHHDbf2-^H6Mob1^TM9 in 200 μl of DKB supplemented with [γ-^33P]ATP. As a control, ^FHHDbf2(N305A)-^H6Mob1^TM9 was used to probe the proteome array. […] To control for autophosphorylated proteins, the proteome array was probed with 200 μl of DKB supplemented with [γ-^33P]ATP. Proteome chips were assayed in duplicate in each case. Data analysis was performed as described (J. Ptacek et al., submitted). Briefly, signals were analyzed by a computer algorithm designed to normalize background and identify signals as positive if 3 of 4 spots (each protein is spotted twice on each slide and each kinase or control was tested on 2 slides) were 2 standard deviations above background and the fourth spot was 1.5 standard deviations above background.

[1] = Table 3, GST fusion proteins on proteome chip, computer analysis
[2] = Table 4, the 25 proteins with highest signal relative to protein amount

Q: Which results are given for “YMR229C: GST fusion yeast protein on proteome chip”?
A: Slide Signal (after normalization) [1]: 2.6954; Slide Signal (after normalization) [2]: 2.6954

Q: “YNL007C: GST fusion yeast protein on proteome chip” was tested. Which “Slide Signal (after normalization)” value [1] did it give?
A: 0.2239

Q: “YDR171W: GST fusion yeast protein on proteome chip” was tested. Which “Slide Signal (after normalization)” value [1] did it give?
A: 0.442

Q: Which results are given for “YDL220C: GST fusion yeast protein on proteome chip”?
A: Slide Signal (after normalization) [1]: 1.0274; Slide Signal (after normalization) [2]: 1.0274
